In paper PMC9332313, “Folding and Binding Mechanisms of the SH2 Domain from Crkl” (Biomolecules, 2022):
Square brackets hold non-standard residues; d marks the D form. Ends that are not written are not given here. * marks the point of attachment. pY = N[C@@H](Cc1ccc(OP(=O)(O)O)cc1)C(=O)O; Dansyl = CN(C)c1cccc2c(S(=O)(=O)*)cccc12

Columns and labels:
Conditions in all cases: both partners purified
[1] = target: T1, SH2 domain of Crkl protein (residues 1-111), H80A variant (UniProt P46109 1-111, H80A); experiment: stopped-flow fluorescence kinetics (FRET); dansyl-Pax112-123 constant at 2 μM mixed with Crkl-SH2 2 to 10 μM (pseudo-first-order, kon); koff by displacement of the preincubated 2 µM complex with excess non-dansylated Pax112-123 (30 μM); 283 K; 50 mM sodium-acetate pH 5.5, 0.5 M NaCl
T1 construct: Crkl adaptor protein, SH2 domain, residues 1-111, His80 replaced by alanine; Site-directed mutant of m1 (QuikChange); source: E. coli BL21 (DE3), purified (HisTrap nickel column, desalting); not shown: His tag, N-terminal, kept
T1 sequence (P46109 1-111 H80A): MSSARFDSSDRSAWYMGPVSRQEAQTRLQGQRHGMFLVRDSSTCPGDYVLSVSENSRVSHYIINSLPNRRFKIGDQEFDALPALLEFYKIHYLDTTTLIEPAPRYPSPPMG

[2] = target: T2, SH2 domain of Crkl protein (residues 1-111), H91A variant (UniProt P46109 1-111, H91A); experiment: as above
T2 construct: Crkl adaptor protein, SH2 domain, residues 1-111, His91 replaced by alanine; Site-directed mutant of m1 (QuikChange); source: E. coli BL21 (DE3), purified (HisTrap nickel column, desalting); not shown: His tag, N-terminal, kept
T2 sequence (P46109 1-111 H91A): as the sequence (P46109 1-111 H80A) above, with A80H, H91A counted along it

[3] = target: T3, SH2 domain of Crkl protein (residues 1-111), H33A variant (UniProt P46109 1-111, H33A); experiment: as above
T3 construct: Crkl adaptor protein, SH2 domain, residues 1-111, His33 replaced by alanine; Site-directed mutant of m1 (QuikChange); source: E. coli BL21 (DE3), purified (HisTrap nickel column, desalting); not shown: His tag, N-terminal, kept
T3 sequence (P46109 1-111 H33A): as the sequence (P46109 1-111 H80A) above, with H33A, A80H counted along it

[4] = target: T4, SH2 domain of Crkl protein (residues 1-111), wild type (UniProt P46109 1-111); experiment: as above
T4 construct: Crkl adaptor protein, SH2 domain, residues 1-111; Subcloned in pET28b+; all experiments were done on the N-terminally His-tagged protein; also called Crkl-SH2; Crkl SH2 domain; source: E. coli BL21 (DE3), purified (HisTrap nickel column, desalting); not shown: His tag, N-terminal, kept
T4 sequence (P46109 1-111): as the sequence (P46109 1-111 H80A) above, with A80H counted along it

[5] = target: T1, SH2 domain of Crkl protein (residues …); experiment: stopped-flow fluorescence kinetics (FRET); dansyl-Pax112-123 constant at 2 μM mixed with Crkl-SH2 2 to 10 μM (pseudo-first-order, kon); koff by displacement of the preincubated 2 µM complex with excess non-dansylated Pax112-123 (30 μM); 283 K; 50 mM TrisHCl pH 9.0, 0.5 M NaCl
[6] = target: T2, SH2 domain of Crkl protein (residues …); experiment: as above
[7] = target: T3, SH2 domain of Crkl protein (residues …); experiment: as above
[8] = target: T4, SH2 domain of Crkl protein (residues …); experiment: as above
[9] = target: T1, SH2 domain of Crkl protein (residues …); experiment: stopped-flow fluorescence kinetics (FRET); dansyl-Pax112-123 constant at 2 μM mixed with Crkl-SH2 2 to 10 μM (pseudo-first-order, kon); koff by displacement of the preincubated 2 µM complex with excess non-dansylated Pax112-123 (30 μM); 283 K; 50 mM TrisHCl pH 8.0, 0.5 M NaCl
[10] = target: T2, SH2 domain of Crkl protein (residues …); experiment: as above

Kd [1]: 2500 ± 500 nM | koff [1]: 20 ± 3.7 s⁻¹ | kon [1]: 7.9e+06 ± 900000 M⁻¹ s⁻¹ | Kd [2]: 4300 ± 200 nM | koff [2]: 24.1 ± 0.4 s⁻¹ | kon [2]: 5.6e+06 ± 300000 M⁻¹ s⁻¹ | Kd [3]: 3400 ± 400 nM | koff [3]: 22.8 ± 2.2 s⁻¹ | kon [3]: 6.7e+06 ± 400000 M⁻¹ s⁻¹ | Kd [4]: 3000 ± 300 nM | koff [4]: 25.6 ± 0.4 s⁻¹ | kon [4]: 8.4e+06 ± 700000 M⁻¹ s⁻¹ | Kd [5]: 2800 ± 300 nM | koff [5]: 34 ± 2.3 s⁻¹ | kon [5]: 1.2e+07 ± 900000 M⁻¹ s⁻¹ | Kd [6]: 2900 ± 100 nM | koff [6]: 36.4 ± 0.5 s⁻¹ | kon [6]: 1.27e+07 ± 500000 M⁻¹ s⁻¹ | Kd [7]: 4200 ± 500 nM | koff [7]: 44.7 ± 4 s⁻¹ | kon [7]: 1.06e+07 ± 1e+06 M⁻¹ s⁻¹ | Kd [8]: 2500 ± 200 nM | koff [8]: 36.1 ± 0.6 s⁻¹ | kon [8]: 1.41e+07 ± 900000 M⁻¹ s⁻¹ | Kd [9]: 2300 ± 300 nM | koff [9]: 30.1 ± 3.3 s⁻¹ | kon [9]: 1.32e+07 ± 700000 M⁻¹ s⁻¹ | Kd [10]: 2900 ± 100 nM | koff [10]: 39 ± 0.7 s⁻¹ | kon [10]: 1.32e+07 ± 500000 M⁻¹ s⁻¹
B1: dansylated Pax_(112–123) peptide (Dans-GEEEHV-pY-SFPNK) (peptide)
peptide: Dansyl-GEEEHV[pY]SFPNK
notes: The dansyl group is the FRET acceptor of Trp14 of the SH2 domain; source: synthetic peptide, bought: GenScript
